What is called Kd is the constant that tells how readily two partners part at equilibrium. The term koff denotes the first-order rate constant of dissociation. Low values mean a long-lived complex, high ones a short-lived complex. As a reminder, the kon is the second-order rate constant of association. The low end stands for slow association, the high end for fast association.

B1: anti-LILRB1 antibody E3 (antibody, human IgG4 S228P)
heavy: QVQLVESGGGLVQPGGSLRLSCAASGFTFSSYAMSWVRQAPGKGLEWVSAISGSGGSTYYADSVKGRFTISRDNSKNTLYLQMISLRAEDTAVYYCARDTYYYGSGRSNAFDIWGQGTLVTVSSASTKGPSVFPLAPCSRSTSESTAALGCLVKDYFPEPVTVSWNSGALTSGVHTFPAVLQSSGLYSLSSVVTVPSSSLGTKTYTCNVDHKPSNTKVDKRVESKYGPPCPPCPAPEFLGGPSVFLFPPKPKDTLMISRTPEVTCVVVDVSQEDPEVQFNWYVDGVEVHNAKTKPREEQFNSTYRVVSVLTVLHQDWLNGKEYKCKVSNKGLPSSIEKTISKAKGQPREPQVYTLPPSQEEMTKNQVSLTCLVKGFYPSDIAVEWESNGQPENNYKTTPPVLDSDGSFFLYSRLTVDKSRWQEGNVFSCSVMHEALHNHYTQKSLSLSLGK
light: SYELTQDPAVSVALGQTVRITCQGDSLRNFYASWYQQKSGQAPVLVMYGKNNRPSGIPDRFSGSTSGNTASLTITGAQAEDEADYYCNSRDSSGSHLTGVFGGGTKVTVLGQPAAAPSVTLFPPSSEELQANKATLVCLISDFYPGAVTVAWKADSSPVKAGVETTTPSKQSNNKYAASSYLSLTPEQWKSHRSYSCQVTHEGSTVEKTVAPTECS
notes: human IgG4, lambda light chain; also called Antibody clone E3
B2: anti-LILRB1 antibody B12 (antibody, V domains shown)
VH: QVQLVQSGAEVKKPGASVKVSCKASGYTFTGYYMHWVRQAPGQGLEWMGWINPNSGGTNYAQKFQGRVTITADESTSTAYMELSSLRSEDTAVYYCTRAGASIVGATALDYWGQGTLVTVSS
VL: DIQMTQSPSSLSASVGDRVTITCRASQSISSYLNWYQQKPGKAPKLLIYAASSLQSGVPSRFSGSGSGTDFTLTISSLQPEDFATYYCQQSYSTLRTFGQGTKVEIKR
notes: human IgG4, kappa light chain; also called Antibody clone B12
B3: anti-LILRB1 antibody E6 (antibody, human IgG4 S228P, V domains shown)
VH: QVQLVQSGAEVKKPGASVKVSCKASGYTFTTYDITWVRQAPGQGLEWMGWMNPNSGNSRSAQKFQGRVSMTSDSSISTAYMELSSLRSEDTAVYYCATGDYSGVVLTATALDYWGQGTLVTVSS
VL: NFMLTQPHSVSESPGKTVTLSCTGSSGNIASNYVQWYQHRPGSAPTTVIYRDDQRPSGVPDRFSGSIDSSSNSASLTISGLRPEDEADYYCQSYDSSSWVFGGGTKLTVLG
notes: human IgG4, lambda light chain; also called Antibody clone E6
B4: anti-LILRB1 antibody G6 (antibody, human IgG4 S228P, V domains shown)
VH: EVQLVESGAEVKKPGASVKVSCKASGYTFTSYYMHWVRQAPGQGLEWMGGIIPIFGTANYAQKFQGRVTITADESTSTAYMELSSLRSEDTAVYYCARGWGYSSSFDYWGQGTTVTVSS
VL: SYELTQDPAVSVALGQTVTITCQGDSLRRYYATWYQQKPGQAPVLVIYGQNYRPSGIPDRFSGSNSGTTASLTITGAQAEDEADYYCNSRDSSGNHVVFGGGTKLTVLG
notes: human IgG4, lambda light chain; also called Antibody clone G6
B5: anti-LILRB1 antibody G1 (antibody, human IgG4 S228P, V domains shown)
VH: EVQLVQSGAEVKKPGSSVKVSCKASGGTFSSYGISWVRQAPGQGLEWMGWISAYNGNTNYAQELQGRVTMTTDTSTSTAYMELRSLRSDDTAVYYCARVGVAGKLDYWGQGTLVTVSS
VL: SYELTQPPSLSVSPGQTASITCSGYKLGDRYVSWYQQKTGQSPVVVIYKDSQRPSGVPERFSGSNSGNTATLTISGTQAMDEADYYCQAWDSGTGVFGGGTKLTVLG
notes: human IgG4, lambda light chain; also called Antibody clone G1
B6: anti-LILRB1 antibody F11 (antibody, human IgG4 S228P, V domains shown)
VH: EVQLVESGGGLVQPGGSLKLSCAASGFTFSSYAMSWVRRAPGKGLEWVSTISGSGDSTYYADSVKGRFTISRDNSKNTLYLQMNNLRAEDTAVYYCAREWELGDAFDIWGRGTLVTVSS
VL: QSVLTQPPSTSGTPGQTFSIFCSGSSSNIGTNTVNWYQQLPGTAPKLLIYSNDQRPSGVPDRFSGSKSGTSASLAISGLQSEDEADYYCETWDDSLKGPVFGGGTKVTVLG
notes: human IgG4, lambda light chain; also called Antibody clone F11
B7: anti-LILRB1 antibody F12 (antibody, human IgG4 S228P, V domains shown)
VH: QVQLVQSGAEVKKPGESLKISCKGSGYSFTSYWIGWVRQMPGKGLEWMGIIYPGDSDTRYSPSFQGQVTISADKSISTAYLQWSSLKASDTAMYYCASQYYDGGYYMDVWGQGTLVTVSS
VL: QSVLTQPASVSGSPGQSITISCAGTSSDIGDYDYVSWYQQHPGKTPKLMIYDVSRRPSGVPDRFSGSKSGNTASLTISGLQTEDEADYYCASYTSSSVVVFGGGTKLTVLG
notes: human IgG4, lambda light chain; also called Antibody clone F12
B8: anti-LILRB1 antibody A10 (antibody, human IgG4 S228P, V domains shown)
VH: QMQLVQSGAEVKKPGSSVKVSCKASGGTFSSYAISWVRQAPGQGLEWMGGIIPIFGTANYAQKFQGRVTITADKSISTAYMELSSLRSEDTAVYYCARGGLGELDNWFDPWGQGTLVTVSS
VL: DIVMTQSPATLSVSPGERATLSCRASQSVSSNLAWYQQKPGQAPRLLIYGASTRATGIPARFSGSGSGTEFTLTISSLQSEDFAVYYCQQYGSSPRMYTFGQGTKVDIKR
notes: human IgG4, kappa light chain; also called Antibody clone A10
B9: anti-LILRB1 antibody E4 (antibody, human IgG4 S228P, V domains shown)
VH: QVQLVQSGAEVKKPGSSVKVSCKASGGTFSSYTISWVRQAPGQGLEWMGRIIPILGIANYAQKFQGRVTMTRDMSTDTAYMELSSLTYDDTAVYFCVRGPSLNYAGYFDNWGQGTLVTVSS
VL: NFMLTQPHSVSESPGKTVTISCTRSSGSIASNYVQWYQQRPGSSPTTVIYEDNQRPSGVPDRFSGSIDSSSNSASLTISGLKTEDEADYYCQSYDTGNRNYVFGTGTQLTVLG
notes: human IgG4, lambda light chain; also called Antibody clone E4
B10: anti-LILRB1 antibody D1 (antibody, human IgG4 S228P, V domains shown)
VH: EVQLVQSGAEVKKPGASVKVSCKASGYTFTSYGISWVRQAPGQGLEWMGWINPNSGGTNYAQKFQGRVTMTRDTSISTAYMELSRLRSDDTAVYYCASRGVDEGDYWGQGTMVTVSS
VL: ETTLTQSPAFMSATPGDKVNISCKASQDIDDDMNWYQQKPGEAAISIIQEASTLVPGIPPRFSGSGYGTDFTLTINNIESEDAAYYFCLQHDKFPYTFGQGTKLEIKR
notes: human IgG4, kappa light chain; also called Antibody clone D1
B11: anti-LILRB1 antibody B9 (antibody, V domains shown)
VH: QVQLVESGAEVKKPGSSVKVSCKASGGTFSSYAISWVRQAPGQGLEWMGGIIPIFGTANYAQKFQGRVTITADESTSTAYMELSSLRSEDTAVYYCARGEIAVAQNWDYYGMDVWGQGTLVTVSS
VL: DIQMTQSPSSLSASVGDRVTITCRASQSISRYLNWYQQKPGKAPKLLIYGASSLQSGVPSRFSGSGSGTDFTLTISSLQPEDFATYHCQQAYGFPLTLGGGTKVEIKR
notes: human IgG4, kappa light chain; also called Antibody clone B9
B12: anti-LILRB1 antibody D3 (antibody, human IgG4 S228P, V domains shown)
VH: EVQLLESGGGVVQPGRSLRLSCAASGSTFSSYAMSWVRQAPGKGLEWVSAISGSGGSTYYADSVKGRFTISRDNSKNTLYLQMNSLRAEDTAVYYCAKDRGSYGYYYGMDVWGQGTMVTVSS
VL: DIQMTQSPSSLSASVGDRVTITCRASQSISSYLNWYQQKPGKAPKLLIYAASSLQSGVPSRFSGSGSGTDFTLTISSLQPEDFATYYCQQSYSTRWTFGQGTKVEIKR
notes: human IgG4; also called Antibody clone D3
B13: anti-LILRB1 antibody E12 (antibody, human IgG4 S228P, V domains shown)
VH: QVQLVESGGGLVQPGGSLRLSCAASGFTFSSYAMHWVRQAPGKGLEWVAVISYDGSNKYYADSVKGRFTISRDNSKNTLYLQMNSLRAEDTAVYYCARERGSGMDVWGQGTLVTVSS
VL: SYELTQDPAVSVALGQTVRITCQGDSLRSYYASWYQQKSGQAPVLVIYGKEKRPSGIPDRFSGSSSGNTASLTITGARAEDEADYYCNSRGSTTDYMVFGGGTQLTVLG
notes: human IgG4, lambda light chain; also called Antibody clone E12
B14: anti-LILRB1 antibody E9 (antibody, human IgG4 S228P, V domains shown)
VH: QVQLVESGGGLVQPGRSLRLSCAASGFTFSSYGMHWVRQAPGKGLEWVANIKQDGSEKYYVDSVKGRFTISRDNAKNTLYLQMNSLRAEDTAVYYCAREDRIAAAGMRELDYWGQGTLVTVSS
VL: QSELTQLPSASETPGQRVTISCSGSSSNIGNNYVYWYQQLPGTAPKLLIYRNNQRPSGVPDRFSGSKSGTSASLAISGLRSEDEADYYCAAWDDSLSGWVFGGGTKLTVLG
notes: human IgG4, lambda light chain; also called Antibody clone E9
B15: anti-LILRB1 antibody A11 (antibody, human IgG4 S228P, V domains shown)
VH: EVQLLESGGGLEQPGGFLRLSCAASGFSFTSYAMTWVRQAPGKGLEWVSGISSDGTTTTYADSVRGRFTISRDNAKNTVYLQMNSLRDEDTAVYYCARDQLLGWDALNVWGQGTMVTVSS
VL: not shown
notes: human IgG4, kappa light chain; also called Antibody clone A11
B16: anti-LILRB1 antibody B3 (antibody, human IgG4 S228P, V domains shown)
VH: EVQLLESGGGLVQPGRSLRLSCAASGFTFDDYAMHWVRQAPGKGLEWVSGISWNSGSIGYADSVKGRFTISRDNSKNTLYLQMNSLRAEDTAVYYCARVGDSSGWSDAFDIWGQGTMVTVSS
VL: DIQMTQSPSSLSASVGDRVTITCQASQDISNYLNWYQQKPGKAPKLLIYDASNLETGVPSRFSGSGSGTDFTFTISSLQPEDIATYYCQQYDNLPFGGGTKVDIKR
notes: human IgG4, kappa light chain; also called Antibody clone B3

T1 sequence (Q8NHL6 24-458 limits assumed): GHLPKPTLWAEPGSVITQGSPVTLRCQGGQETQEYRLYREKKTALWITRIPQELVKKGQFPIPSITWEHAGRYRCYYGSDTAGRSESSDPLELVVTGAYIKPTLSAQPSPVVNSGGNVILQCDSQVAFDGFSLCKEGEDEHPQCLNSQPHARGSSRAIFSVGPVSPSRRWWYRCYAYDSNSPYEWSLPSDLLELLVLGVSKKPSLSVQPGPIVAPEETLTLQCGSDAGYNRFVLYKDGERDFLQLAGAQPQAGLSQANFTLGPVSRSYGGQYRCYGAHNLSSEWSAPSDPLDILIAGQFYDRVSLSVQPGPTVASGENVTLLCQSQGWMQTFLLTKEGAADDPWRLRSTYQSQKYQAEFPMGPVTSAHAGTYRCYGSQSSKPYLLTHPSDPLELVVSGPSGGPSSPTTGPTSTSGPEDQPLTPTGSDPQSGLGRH

The first assay concerns the target T1, human LILRB1 protein (LILRB1-His, RnD systems Cat. No. 8989-T2) (human, UniProt Q8NHL6 24-458).
T1 construct: Bought protein; also called human LILRB1-His; not shown: His tag
As to the kind of experiment: SPR (Biacore T200), antibody captured by anti-human IgG (Fc), LILRB1-His injected. On the procedure:
The binding affinities of the 93 antibodies, which were selected in Example 1.3, to the antigen, LILRB1, were measured using Biacore T200 (GE healthcare). An anti-human IgG (Fc) antibody (GE healthcare, Cat. No. BR-1008-39, final concentration of 25 μg/mL) was flowed at the flow rate of 5 μL/min for 360 seconds to be immobilized at 5000-7000 RU on Series S Sensor Chip CM5 (GE healthcare, Cat. No. BR-1005-30) using Amine Coupling Kit (GE healthcare, Cat. No. BR-1000-508).
In general terms: Surface plasmon resonance follows binding to a sensor surface in real time, without labels.
As to B1, binding was put at a Kd of 101 nM, the koff amounted to 0.0035 s⁻¹ and the kon was 34600 M⁻¹ s⁻¹.
In turn, B2 gave a Kd of 7.84 nM, a koff of 0.00144 s⁻¹ and a kon of 184000 M⁻¹ s⁻¹.
Consider B3, for which the affinity, expressed as Kd, was 60.7 nM; the koff stood at 0.00163 s⁻¹; the kon was determined as 26800 M⁻¹ s⁻¹.
The matching figures for B4: 59.1 nM, 0.0152 s⁻¹ and 258000 M⁻¹ s⁻¹.
For the molecule B5, the Kd is 3.28 nM, the koff stood at 0.00142 s⁻¹ and the kon was determined as 433000 M⁻¹ s⁻¹.
For B6, in that order: 2.26 nM, 0.000615 s⁻¹ and 272000 M⁻¹ s⁻¹.
B7 showed a Kd of 3.46 nM, a koff of 0.000973 s⁻¹ and a kon of 281000 M⁻¹ s⁻¹.
The molecule B8 showed a Kd of 152 nM, a koff of 0.00765 s⁻¹ and a kon of 50400 M⁻¹ s⁻¹.
With B9, the Kd came out at 72.5 nM, the koff worked out at 0.000773 s⁻¹ and the kon is 10600 M⁻¹ s⁻¹.
The matching figures for B10: 49.3 nM, 0.00574 s⁻¹ and 116000 M⁻¹ s⁻¹.
Turning to B11, the Kd worked out at 66.1 nM, the koff amounted to 0.000616 s⁻¹ and the kon amounted to 9320 M⁻¹ s⁻¹.
On to B12, for which binding was characterised by a dissociation constant (Kd) of 180 nM, the koff was determined as 0.000558 s⁻¹ and the kon stood at 3110 M⁻¹ s⁻¹.
B13 registered a Kd of 44 nM, a koff of 0.0103 s⁻¹ and a kon of 233000 M⁻¹ s⁻¹.
B14 displayed a Kd of 99.9 nM, a koff of 0.00105 s⁻¹ and a kon of 10500 M⁻¹ s⁻¹.
Turning to B15, the Kd came out at 5450 nM, the koff came to 0.000981 s⁻¹ and the kon came to 180 M⁻¹ s⁻¹.
Molecule B16 showed a Kd of 99.8 nM, a koff of 0.00149 s⁻¹ and a kon of 14900 M⁻¹ s⁻¹.

The next assay deals with T2, LILRB1 expressed on the surface of human natural killer cell KHYG-1 (human, UniProt Q8NHL6 24-650).
T2 construct: whole, on cells; also called LILRB1 on KHYG-1 cells; human NK cells (surface)
T2 sequence (Q8NHL6 24-650): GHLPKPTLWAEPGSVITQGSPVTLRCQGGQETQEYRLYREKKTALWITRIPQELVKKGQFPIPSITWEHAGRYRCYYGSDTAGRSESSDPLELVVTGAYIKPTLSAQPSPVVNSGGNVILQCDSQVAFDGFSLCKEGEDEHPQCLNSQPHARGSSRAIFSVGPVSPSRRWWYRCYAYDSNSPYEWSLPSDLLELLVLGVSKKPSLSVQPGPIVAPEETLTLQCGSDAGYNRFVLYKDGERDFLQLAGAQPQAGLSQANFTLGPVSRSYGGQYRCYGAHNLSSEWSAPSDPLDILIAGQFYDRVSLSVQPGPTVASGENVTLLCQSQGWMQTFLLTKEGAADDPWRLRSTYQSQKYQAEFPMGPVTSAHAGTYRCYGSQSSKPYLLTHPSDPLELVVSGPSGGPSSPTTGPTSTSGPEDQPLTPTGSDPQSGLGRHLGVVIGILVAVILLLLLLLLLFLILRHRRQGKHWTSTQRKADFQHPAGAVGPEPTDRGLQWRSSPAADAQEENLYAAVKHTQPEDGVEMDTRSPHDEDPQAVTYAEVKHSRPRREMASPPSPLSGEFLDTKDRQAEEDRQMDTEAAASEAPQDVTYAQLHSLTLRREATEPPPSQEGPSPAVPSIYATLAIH
As to the kind of experiment: flow cytometry (iQue) on KHYG-1 NK cells, antibody 50 ug/mL. The procedure:
In order to test whether or not 93 antibodies selected in Example 1.4 bind LILRB1 expressed on surface of immune cells, natural killer cell (NK cell) surface binding assay was performed. A human NK cell, KHYG-1 cell (JCRB) was cultured in RPMI 1640 medium (Gibco) supplemented with 10%(w/v) of FBS (Gibco) and 100 U/mL of interleukin-2 (Novartis). KHYG-1 cells were added to a U-bottom 96-well tissue culture plate (BD Falcon) at the amount of 5×10⁴ cells/well. Each of the selected antibodies was added to the well to the final concentration of 50 μg/mL per well and incubated at 4° C. for 1 hour.
In order to see the level of LILRB1-specific binding of the selected antibodies, a human IgG4 isotype control antibody (Biolegend) was treated in the same manner. After washing with FACS buffer, the cells were treated with an anti-human Fc-biotin antibody (life technologies) and incubated at 4° C. for 1 hour. After washing with FACS buffer, the cells were treated with streptavidin PE (BD Pharmigen) and incubated at 4° C. for 30 minutes. After washing with FACS buffer, the cells were resuspended and subjected to analysis using iQue screener (Sartorius).
In general terms: Flow cytometry measures light scatter and fluorescence of single cells or particles in a stream.
Consider B1, for which the “% of population 2” value is 40.2% and the “Mean Fluorescence Intensity” value was determined as 269000.
Regarding B5, the “% of population 2” value worked out at 56.2% and the “Mean Fluorescence Intensity” value came to 321000.
As for B7, the “% of population 2” value was found to be 38% and the “Mean Fluorescence Intensity” value worked out at 262000.
Regarding B8, the “% of population 2” value was found to be 28.7% and the “Mean Fluorescence Intensity” value stood at 223000.
Regarding B9, the “% of population 2” value was determined as 43.2% and the “Mean Fluorescence Intensity” value came out at 272000.

The record behind these values is patent publication US20240270841A1 (LG CHEM, published 2024).
